From the Human Domainome abundance scans (Beltran et al. 2025)
± gives the uncertainty stated by the source.

B1: Pre-mRNA-processing factor 40 homolog B, residues 274 to 332; numbered along this chain, Q6NWY9 (parent)
chain: SNREKAKQAFKELLRDKAVPSNASWEQAMKMVVTDPRYSALPKLSEKKQAFNAYKAQRE

Variants of: B1
Test: abundance fitness (aPCA) (normalised: wild type 0, dead -1); higher = more abundant; growth selection in yeast, the domain comes from the species named
Conditions: Homo sapiens

Variant | abundance fitness
F10V | -0.511 ± 0.075
F10W | -0.869 ± 0.11
F10Y | -0.282 ± 0.16
K11A | 0.145 ± 0.084
K11C | 0.061 ± 0.11
K11D | -0.386 ± 0.17
K11E | 0.004 ± 0.15
K11F | 0.061 ± 0.12
K11G | -0.16 ± 0.07
K11H | -0.17 ± 0.32
K11I | 0.233 ± 0.12
K11L | 0.159 ± 0.1
K11N | -0.137 ± 0.16
K11P | -0.322 ± 0.13
K11Q | 0.343 ± 0.13
K11R | -0.03 ± 0.067
K11S | -0.001 ± 0.1
K11T | 0.217 ± 0.11
K11W | 0.082 ± 0.1
K11Y | -0.155 ± 0.24
E12A | -0.231 ± 0.075
E12C | -0.602 ± 0.13
E12D | -0.152 ± 0.12
E12F | -0.718 ± 0.18

Variant | abundance fitness
E12G | -0.491 ± 0.061
E12H | -0.297 ± 0.17
E12K | -0.469 ± 0.11
E12L | -0.632 ± 0.091
E12M | -0.705 ± 0.14
E12N | -0.128 ± 0.14
E12P | -0.988 ± 0.14
E12Q | -0.249 ± 0.1
E12R | -0.62 ± 0.073
E12S | -0.283 ± 0.083
E12T | -0.301 ± 0.13
E12V | -0.705 ± 0.077
E12W | -1.15 ± 0.17
E12Y | -0.817 ± 0.27
L13A | -0.327 ± 0.063
L13C | -0.244 ± 0.12
L13D | -0.262 ± 0.1
L13E | -0.377 ± 0.074
L13F | -0.668 ± 0.13
L13G | -0.331 ± 0.056
L13H | -0.411 ± 0.13
L13I | -1.12 ± 0.28
L13K | -0.388 ± 0.11
L13M | 0.122 ± 0.097

Variant | abundance fitness
L13N | -0.482 ± 0.11
L13Q | -0.286 ± 0.14
L13R | -0.491 ± 0.066
L13T | -0.48 ± 0.093
L13V | -0.511 ± 0.066
L13W | -1.02 ± 0.12
L13Y | -0.559 ± 0.16
L14A | -0.452 ± 0.069
L14C | -0.483 ± 0.11
L14D | -0.504 ± 0.11
L14E | -0.339 ± 0.096
L14F | -0.683 ± 0.12
L14G | -0.403 ± 0.054
L14H | -0.573 ± 0.2
L14I | -1.05 ± 0.27
L14K | -0.408 ± 0.11
L14M | -0.639 ± 0.1
L14N | -0.376 ± 0.11
L14P | -0.261 ± 0.1
L14Q | -0.339 ± 0.12
L14R | -0.71 ± 0.067
L14S | -0.384 ± 0.079
L14T | -0.547 ± 0.098
L14V | -0.385 ± 0.068

Variant | abundance fitness
L14W | -0.963 ± 0.11
L14Y | -0.925 ± 0.18
R15A | 0.001 ± 0.089
R15C | -0.171 ± 0.11
R15D | -0.238 ± 0.16
R15E | 0.046 ± 0.14
R15F | 0.019 ± 0.13
R15G | -0.211 ± 0.084
R15H | 0.064 ± 0.32
R15I | -0.052 ± 0.18
R15K | -0.129 ± 0.16
R15L | -0.097 ± 0.077
R15M | 0.219 ± 0.2
R15N | 0.015 ± 0.15
R15P | -0.593 ± 0.12
R15Q | -0.062 ± 0.14
R15S | -0.214 ± 0.1
R15V | -0.001 ± 0.087
R15W | -0.106 ± 0.1
R15Y | -0.091 ± 0.18
D16A | -0.461 ± 0.079
D16C | -0.933 ± 0.1
D16F | -1.05 ± 0.11
D16H | -1.03 ± 0.18

Variant | abundance fitness
D16K | -0.699 ± 0.12
D16L | -0.584 ± 0.075
D16M | -1.03 ± 0.17
D16N | -1.23 ± 0.19
D16P | -0.875 ± 0.12
D16Q | -0.443 ± 0.12
D16R | -0.7 ± 0.064
D16S | -0.486 ± 0.069
D16T | -0.351 ± 0.085
D16V | -0.716 ± 0.073
D16W | -0.579 ± 0.1
D16Y | -0.888 ± 0.13
K17A | -0.106 ± 0.072
K17C | -0.38 ± 0.12
K17D | -0.72 ± 0.13
K17E | -0.437 ± 0.097
K17F | -0.146 ± 0.099
K17G | -0.599 ± 0.075
K17H | -0.239 ± 0.2
K17I | -0.651 ± 0.15
K17L | -0.605 ± 0.089
K17M | -0.038 ± 0.11
K17N | -0.07 ± 0.15
K17P | -0.573 ± 0.13

Variant | abundance fitness
K17Q | -0.213 ± 0.13
K17R | -0.107 ± 0.061
K17S | -0.365 ± 0.071
K17T | -0.429 ± 0.091
K17V | -0.525 ± 0.068
K17Y | -0.189 ± 0.18
A18C | 0.007 ± 0.11
A18D | 0.045 ± 0.14
A18E | -0.012 ± 0.069
A18F | -0.539 ± 0.18
A18H | 0.074 ± 0.14
A18I | -0.536 ± 0.13
A18K | -0.043 ± 0.086
A18L | -0.127 ± 0.069
A18M | -0.096 ± 0.11
A18N | -0.067 ± 0.15
A18P | -0.606 ± 0.096
A18Q | 0.101 ± 0.092
A18R | -0.035 ± 0.058
A18S | -0.089 ± 0.073
A18T | -0.282 ± 0.097
A18V | -0.367 ± 0.065
A18W | -0.473 ± 0.085
A18Y | -0.656 ± 0.19

Variant | abundance fitness
V19A | -0.612 ± 0.085
V19C | -0.583 ± 0.11
V19D | -0.295 ± 0.13
V19E | -0.375 ± 0.096
V19F | -0.932 ± 0.14
V19G | -0.479 ± 0.056
V19H | -0.938 ± 0.23
V19I | -0.462 ± 0.13
V19K | -0.807 ± 0.13
V19L | -0.606 ± 0.084
V19M | -0.32 ± 0.095
V19N | -0.598 ± 0.19
V19P | -0.477 ± 0.11
V19Q | -0.383 ± 0.2
V19R | -0.633 ± 0.065
V19S | -0.533 ± 0.078
V19T | -0.231 ± 0.1
V19W | -0.589 ± 0.083
V19Y | -0.992 ± 0.15
P20A | -0.451 ± 0.066
P20C | -0.59 ± 0.095
P20D | -0.395 ± 0.14
P20E | -0.364 ± 0.064
